Data from patent US7332335.

Target: p53, P04637
Sequence (P04637 whole entry, looked up): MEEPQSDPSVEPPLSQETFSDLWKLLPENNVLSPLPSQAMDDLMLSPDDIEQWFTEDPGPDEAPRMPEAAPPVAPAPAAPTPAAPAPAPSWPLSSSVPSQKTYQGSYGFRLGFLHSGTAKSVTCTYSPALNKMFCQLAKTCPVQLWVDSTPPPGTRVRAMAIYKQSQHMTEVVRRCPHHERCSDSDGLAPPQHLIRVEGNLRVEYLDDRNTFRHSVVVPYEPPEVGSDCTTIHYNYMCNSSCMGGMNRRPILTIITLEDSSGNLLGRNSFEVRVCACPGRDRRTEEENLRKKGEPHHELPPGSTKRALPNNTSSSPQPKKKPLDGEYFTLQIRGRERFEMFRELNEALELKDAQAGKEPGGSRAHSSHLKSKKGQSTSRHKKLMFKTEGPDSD

B1: recombinant PP5 (protein phosphatase 5) (protein)
chain: MAMAEGERTECAEPPRDEPPADGALKRAEELKTQANDYFKAKDYENAIKFYSQAIELNPSNAIYYGNRSLAYLRTECYGYALGDATRAIELDKKYIKGYYRRAASNMALGKFRAALRDYETVVKVKPHDKDAKMKYQECNKIVKQKAFERAIAGDEHKRSVVDSLDIESMTIEDEYSGPKLEDGKVTISFMKELMQWYKDQKKLHRKCAYQILVQVKEVLSKLSTLVETTLKETEKITVCGDTHGQFYDLLNIFELNGLPSETNPYIFNGDFVDRGSFSVEVILTLFGFKLLYPDHFHLLRGNHETDNMNQIYGFEGEVKAKYTAQMYELFSEVFEWLPLAQCINGKVLIMHGGLFSEDGVTLDDIRKIERNRQPPDSGPMCDLLWSDPQPQNGRSISKRGVSCQFGPDVTKAFLEENNLDYIIRSHEVKAEGYEVAHGGRCVTVFSAPNYCDQMGNKASYIHLQGSDLRPQFHQFTAVPHPNVKPMAYANTLLQLGMM
  dephosphorylation of p53 in vitro: recombinant PP5 can dephosphorylate p53 in vitro
